Measured values as given in paper PMC8528861, “Structural and functional analysis of target recognition by the lymphocyte adaptor protein LNK” (Nature Communications, 2021).
pIC50, pKd: −log10 of the molar value.

Legend:
[1] = biological target: M. musculus LNK SH2 domain (residues 324–446), wild type (mouse) (UniProt O09039); test: SPR; competition: biotinylated IL6ST pY757 peptide immobilised on a streptavidin chip; 0.1–0.5 μM WT LNK SH2 domain pre-incubated with phosphopeptide and flowed over; 10 mM HEPES pH 7.4, 150 mM NaCl, 3.4 mM EDTA, 0.005% Tween 20; response normalised to LNK only, IC50 fit
M. musculus LNK SH2 domain (residues 324–446), wild type (mouse), sequence (O09039 324-446): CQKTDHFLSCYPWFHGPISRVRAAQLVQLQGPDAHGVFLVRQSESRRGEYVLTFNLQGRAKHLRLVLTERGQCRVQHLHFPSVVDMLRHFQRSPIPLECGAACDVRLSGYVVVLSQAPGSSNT

[2] = biological target: biotinylated JAK2 pY813 peptide; test: SPR; direct binding: biotinylated JAK2 pY813 immobilised on a streptavidin chip; LNK and SH2B SH2 domains flowed over for 420 s at 30 μL/min; 10 mM HEPES pH 7.4, 150 mM NaCl, 3.4 mM EDA, 0.005% Tween 20

Substance	pIC50 [1]	other results
JAK2 pY813 peptide mutant +1A	6.37	
JAK2 pY813 peptide mutant +4A	7.05	
JAK2 pY813 peptide mutant −1A	6.82	
M. musculus LNK SH2 domain R387C (from UniProt O09039 325-438) (domain or fragment)		fold loss in affinity relative to the WT SH2 domain [2]: 3 fold
M. musculus LNK SH2 domain R387H (from UniProt O09039 325-438) (domain or fragment)		fold loss in affinity relative to the WT SH2 domain [2]: 10 fold
mouse SH2B SH2 domain (from UniProt Q91ZM2 527-625) (domain or fragment)		pKd [2]: 7.00

Further lines, with some results ahead:

pIC50 [1]	Substance	other results
5.84	JAK2 pY813 peptide mutant +3F	
6.52	JAK2 pY813 peptide mutant +5A	
